# B1: DFD23 (Fc fusion)
# chain: HGEGTFTSDVSSYLEGQAAKEFIAWLVKGRGEKEKEEQEERETKTPECPSHTQPLGVFLFPPKPKDTLMISRTPEVTCVVVDVSQEDPEVQFNWYVDGVEVHNAKTKPREEQFNSTYRVVSVLTVLHQDWLNGKEYKCKVSNKGLPSSIEKTISKAKGQPREPQVYTLPPSQEEMTKNQVSLTCLVKGFYPSDIAVEWESNGQPENNYKTTPPVLDSDGSFFLYSRLTVDKSRWQEGNVFSCSVMHEALHNHYTQKSLSLSLGKGGGGSGGGGSGGGGSHPIPDSSPLLQFGGQVRQRYLYTDDAQQTEAHLEIREDGTVGGAADQSPESLLQLKALKPGVIQILGVKTSRFLCQRPDGALYGSLHFDPEACSFREEIRPDGYNVYQSEAHGLPLHLPGNKSPHRDPAPRGPARFLPLPGLPPALPEPPGILAPQPPDVGSSDPLSMVTGLEAVRSPSYAS
# B2: DFD59: GLP1(GEG)-HyFc40 (Fc fusion)
# chain: HGEGTFTSDVSSYLEEQAAKEFIAWLVKGGGEKEKEEQEERETKTPECPSHTQPLGVFLFPPKPKDTLMISRTPEVTCVVVDVSQEDPEVQFNWYVDGVEVHNAKTKPREEQFNSTYRVVSVLTVLHQDWLNGKEYKCKVSNKGLPSSIEKTISKAKGQPREPQVYTLPPSQEEMTKNQVSLTCLVKGFYPSDIAVEWESNGQPENNYKTTPPVLDSDGSFFLYSRLTVDKSRWQEGNVFSCSVMHEALHNHYTQKSLSLSLGK
# Target: human GLP-1 receptor (human, UniProt P43220 24-463)
# Assay: cell-based or functional assay
row,Binder,"in vitro GLP-1 activity (intracellular cAMP, EC50 compared)"
1,B1,2 to 3 times lower activity than the dual function proteins with other GLP-1 mutant sequences
2,B2,"~2 times higher activity than the dual function proteins DFD69, DFD112 and DFD114"
